Experimental findings from the supplement of paper PMC12042874 are described below.

± gives the uncertainty stated by the source.

A short description of one data set: amyloid nucleation score (Sup35N fusion, yeast selection) (log enrichment); library NNK3; higher = more nucleation; inactive = no reads after selection. A digest of the protocol:
(§1)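 Plasmid inserts were Illumina-sequenced at input and output from psi-negative yeast expressing Sup35N fused to peptides of 20 random codons. The yeast were induced with 100 μM copper sulfate for 24 hours and grown 7 days at 30°C on medium lacking adenine and uracil, and sequences with under 100 input reads were excluded. Nucleation score is the DiMSum log enrichment of output over input reads, centred on the mode score of non-aggregating sequences.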
Substance YSLAELMCMKEHLPMRNGCF had an amyloid nucleation score of 0.774 ± 0.14. Same read-out and setting: under YSMIKFSISAD stands “inactive”.

Substance YSNVNALISSTSLYLCCCML came in with an amyloid nucleation score of 0.644 ± 0.23. The same measure, in the same setting: under YSPDMRGMFIGGPDSVPLEG stands “inactive”. Still for that read-out and setting: under YSPSLGSDQACSQLCSLSTF stands “inactive”. On the same count and under the same terms, for YSQFCYIVHLVIGMVDSRRC the value was “inactive”. Regarding YSQVVW, the amyloid nucleation score result is “inactive”.

As to YSRDSGCRIKVVPALTVRGR, the amyloid nucleation score result was “inactive”. Same read-out and setting: under YSRGV stands “inactive”. On the same count and under the same terms, for YSTNVSYY the value was “inactive”; for YSTVDQLARGLQKLMVWLDV, “inactive”; for YSVAVREIVGMNSKLLCDVN, “inactive”. Still for that read-out and setting: for YSVWVGLCVYSDGYRYNMPE the value was 2.06 ± 0.062. As to YSYANSMNMGMMFMGRLGW, the amyloid nucleation score entry is “inactive”. Still for that read-out and setting: for YSYAQMSLMEQQMLIRT the value was “inactive”; for YSYICIILYWWCSRSAILPF, “inactive”. The same measure, in the same setting: under YSYRVRTSFVENRKCA stands “inactive”; under YTRDRQV, “inactive”. Still for that read-out and setting: under YTRGTWS stands “inactive”; under YTVGIVTDWFVTSGNSFYK, “inactive”; under YTVRMWKDDVRARRGSQGVW, “inactive”. Consider YVFKMWLGPSSLIEFDLKRH, for which the amyloid nucleation score worked out at 2.88 ± 0.062. The same measure, in the same setting: under YVHFLFQTHIRCMVRFSLCW stands “inactive”. On the same count and under the same terms, for YVIYFSN the value was -0.389 ± 0.93. Still for that read-out and setting: under YVLRCVFSSDNKDGAWTTWI stands “inactive”.

YVNFWKLVIREINFKKNGEP: the amyloid nucleation score entry was “inactive”.

Take YVRNQVNFSLAWLLITKLTK: the amyloid nucleation score is 1.94 ± 0.085.

For YVSIWNHDADRGRC, the amyloid nucleation score entry is “inactive”.

As for YVSLCTTPVGERTSYSCDIH, the amyloid nucleation score result is “inactive”.

Consider YVSPNF, for which the amyloid nucleation score entry was “inactive”. Still for that read-out and setting: for YVTDMRCGVL the value was “inactive”.

Take YWLNK: the amyloid nucleation score result is “inactive”. On the same count and under the same terms, under YWMLNAHRNW stands “inactive”. YWMMLRT: the amyloid nucleation score entry is “inactive”.

Consider YWQHWWL, for which the amyloid nucleation score entry was “inactive”. Same read-out and setting: for YWVGEWLMCPYTR the value was “inactive”; for YWVWLGPQNI, 0.115 ± 0.41; for YWYTTCIWRVTSNCWVCISW, “inactive”. Same read-out and setting: under YYCCC stands 1.63 ± 0.072. Still for that read-out and setting: for YYCDLRSYIRSPG the value was “inactive”. As for YYFHRFL, the amyloid nucleation score result was “inactive”. On the same count and under the same terms, for YYFTVLRLVVNMAIVSPCPQ the value was “inactive”; for YYPQRAGYRVPVFLWIGNWR, “inactive”; for YYQLKSHVVRDGHVWTICGS, “inactive”. On the same count and under the same terms, under YYSGVFPNVVGRS stands “inactive”; under YYSLWRSIIVEACRFC, “inactive”; under YYTSYIAGNLAFNTSKFRKM, -0.347 ± 0.7. On the same count and under the same terms, for YYVIDILVW the value was “inactive”; for YYYLKVHNLVSYVNAFVR, “inactive”; for YYYSMVTTLRGAISILRNPA, “inactive”.

The next data set can be described thus: amyloid nucleation score (Sup35N fusion, yeast selection) (log enrichment); library NNK2; higher = more nucleation; inactive = no reads after selection. A digest of the protocol: as §1
The substance AAFQSMENCCAFCSVRRQES displayed an amyloid nucleation score of -0.406 ± 0.38.

The substance AAKDSAWFHAIWVKKVRREV returned an amyloid nucleation score of 1.01 ± 0.68. Take AALGTDMSNWVHSRLNQERR: the amyloid nucleation score was found to be 0.433 ± 0.45. As for AAPGCFNLKFLS, the amyloid nucleation score is -0.36 ± 0.74. Take AAQIHYSKYNDDVYFSFEEK: the amyloid nucleation score came to 0.283 ± 0.37.

On to ACFHGFPIYGCLLANAMCGR, for which the amyloid nucleation score stood at 1.33 ± 0.67.

In turn, ACLFWIYARRHRLAWVVFIW displayed an amyloid nucleation score of -0.487 ± 1.1. The same measure, in the same setting: for ACNWLESFIKCFICVWYRDK the value was 7.73 ± 0.079; for ACSDGVAMECKV, -0.429 ± 0.44. Same read-out and setting: for ADFTWVKSHVCHMEWSR the value was 0.551 ± 0.42; for ADGFVSSIVLT, 0.006 ± 0.24. The same measure, in the same setting: for ADRYMHSTHVDNCPYAGFTS the value was 0.444 ± 0.44; for ADSWWSLYNIFEFSSINLNV, “inactive”; for AEMVSANRLSKCEMTIRLWD, 3.64 ± 0.077.

For the substance AERIFSQ, the amyloid nucleation score was -1.45 ± 0.62.

The substance AEVGTPESLLEGNIDRERIP returned an amyloid nucleation score of 0.42 ± 0.36. On the same count and under the same terms, for AEYKRGKEGSPLAIWWQLDP the value was 2.34 ± 0.13; for AEYPHAFFSDCACYHIPGSA, 0.586 ± 0.57. Turning to AFCKALCIVRRYSPPPLIVA, the amyloid nucleation score entry is “inactive”. Still for that read-out and setting: under AFDEVSSFGGFFERCFWIKL stands 5.91 ± 0.076. The same measure, in the same setting: for AFGFSI the value was -1.3 ± 0.42; for AFGKACPGMCMTKFTACTNR, 0.569 ± 0.13; for AFICMFVIRFDWYNMS, -0.558 ± 1. Same read-out and setting: for AFNATIRNAC the value was -0.746 ± 0.62. In the case of AFSMCSDRWIWLSCLNVEFV, the amyloid nucleation score worked out at 9.677 ± 0.048. The same measure, in the same setting: under AFWRLAVLFVVCRIIF stands 0.13 ± 0.65. In turn, AFYCTVC returned an amyloid nucleation score of 7.346 ± 0.043. The same measure, in the same setting: for AFYKFMSEHSSAVHCDPMHD the value was -0.025 ± 0.76; for AGFWEDEVFRV, -0.714 ± 0.48; for AGMMFKR, 1.71 ± 0.37. In turn, AGSGFRSATWYRASTWMAFG returned an amyloid nucleation score of 2.93 ± 0.13. Still for that read-out and setting: for AGSSS the value was -0.561 ± 0.63; for AHFQYRGNRAFQVWNYCGKY, 2.55 ± 0.12; for AHPMEQCKIL, 0.545 ± 0.41.

Turning to AHTRSAMGDMPNVNGFLKCT, the amyloid nucleation score result is “inactive”. Regarding AIDAFFLSV, the amyloid nucleation score was -0.191 ± 0.26.

In turn, AIMGHGLPYGTGLMEVGGAK had an amyloid nucleation score of 5.13 ± 0.084. Same read-out and setting: under AITGGFSAFIRYYGVMYDVG stands -0.736 ± 0.45. Substance AIYKDRGWGATGHVFRILGR displayed an amyloid nucleation score of 0.752 ± 0.57. Still for that read-out and setting: for AIYLWSF the value was 4.85 ± 0.054; for AKVRLYVRGGSLLIGIRSVV, 0.555 ± 0.22; for AKWRDRSETYYLYFRISVRI, -0.493 ± 1.1.

In turn, ALATFVTPVAESA displayed an amyloid nucleation score of 4.05 ± 0.05. Same read-out and setting: for ALDSNSWPYDGGMWRTT the value was -0.232 ± 1.1. In turn, ALFRPEYRFM came in with an amyloid nucleation score of 2.64 ± 0.13. The same measure, in the same setting: under ALFVYYDIQVVGITY stands -1.1 ± 0.4.

ALILAVLPSKDPIRVCWYSG returned an amyloid nucleation score of 0.04 ± 0.33. As for ALLALTVLIYNLIDMLQVNR, the amyloid nucleation score was 0.728 ± 0.8.

In turn, ALSSVFYIDFHFDYLYDVTL had an amyloid nucleation score of 2.72 ± 0.2. The same measure, in the same setting: for ALVCLMKSSFCTCEHLYDVR the value was 7.168 ± 0.044.

Substance ALWCRENFINCYIPYLQMFF showed an amyloid nucleation score of 6.219 ± 0.036. Same read-out and setting: under ALYRL stands 0.233 ± 0.62.
